Data on four molecules can be found in article PMC2877795, “Laminin chain assembly is regulated by specific coiled-coil interactions” (Journal of Structural Biology, 2010).

Conditions in all cases: both partners purified
The target in assay [1] is T1, recombinant mouse laminin γ2 chain C-terminal coiled-coil fragment (949–1191) (mouse, UniProt Q61092 949-1191).
T1 construct: two residues (GlySer) left from the protease recognition site after thrombin cleavage; laminin γ2 chain, mouse, C-terminal coiled-coil fragment, residues 949-1191 of the native chain (243 residues); source: E. coli JM109(DE3), purified (Ni2+-Sepharose, denaturing, 8 M urea), 6xHis tag removed by thrombin; not shown: 6xHis, N-terminal, cleaved; pPEP-T leader (short C-terminal fragment of the …)
T1 sequence: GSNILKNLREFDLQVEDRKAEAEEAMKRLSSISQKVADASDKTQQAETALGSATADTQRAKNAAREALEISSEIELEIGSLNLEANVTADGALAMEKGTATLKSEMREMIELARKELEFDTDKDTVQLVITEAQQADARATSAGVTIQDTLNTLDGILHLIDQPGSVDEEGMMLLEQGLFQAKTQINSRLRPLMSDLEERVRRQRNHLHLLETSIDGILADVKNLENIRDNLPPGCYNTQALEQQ
Nature of the assay: native gel or EMSA; mixtures of one β and one γ chain fragment; 10% non-denaturing PAGE (acid gels for basic complexes); mixtures reduced, heated to 70 °C for 5 min and cooled; run overnight at 50 V; Coomassie; bands confirmed by in-gel trypsin digestion and mass spectrometry.

For assay [2], the target named is T2, recombinant mouse laminin γ3 chain C-terminal coiled-coil fragment (1344–1581) (mouse, UniProt Q9R0B6 1344-1581).
T2 construct: two residues (GlySer) left from the protease recognition site after thrombin cleavage; laminin γ3 chain, mouse, C-terminal coiled-coil fragment, residues 1344-1581 of the native chain (238 residues); source: E. coli JM109(DE3), purified (Ni2+-Sepharose, denaturing, 8 M urea), 6xHis tag removed by thrombin; not shown: 6xHis, N-terminal, cleaved
T2 sequence: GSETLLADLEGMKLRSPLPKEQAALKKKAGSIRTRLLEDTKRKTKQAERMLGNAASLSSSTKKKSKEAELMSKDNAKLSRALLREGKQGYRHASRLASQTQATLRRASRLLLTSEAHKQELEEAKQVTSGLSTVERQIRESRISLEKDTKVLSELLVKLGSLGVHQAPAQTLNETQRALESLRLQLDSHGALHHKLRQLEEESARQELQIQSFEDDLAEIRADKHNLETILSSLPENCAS
Described as above.

Assay [3] deals with T3, recombinant mouse laminin γ1 chain C-terminal coiled-coil fragment (1362–1607) (mouse, UniProt P02468 1362-1607).
T3 construct: two residues (GlySer) left from the protease recognition site after thrombin cleavage; laminin γ1 chain, mouse, C-terminal coiled-coil fragment, residues 1362-1607 of the native chain (246 residues); source: E. coli JM109(DE3), purified (Ni2+-Sepharose, denaturing, 8 M urea), 6xHis tag removed by thrombin; not shown: 6xHis, N-terminal, cleaved; pPEP-T leader (short C-terminal fragment of the …)
T3 sequence: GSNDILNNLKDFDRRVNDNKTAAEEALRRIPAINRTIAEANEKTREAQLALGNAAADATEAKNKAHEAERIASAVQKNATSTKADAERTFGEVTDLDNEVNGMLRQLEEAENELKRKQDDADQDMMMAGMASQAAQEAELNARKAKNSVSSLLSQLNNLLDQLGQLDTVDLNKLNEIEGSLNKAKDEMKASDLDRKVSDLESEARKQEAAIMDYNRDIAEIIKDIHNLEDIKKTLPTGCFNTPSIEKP
Described as above.

For assay [4], the target named is T4, β1γ1 complex of the recombinant mouse laminin coiled-coil fragments (mouse, UniProt P02469 1561-1786; P02468 1362-1607).
T4 construct: two residues (GlySer) left from the protease recognition site after thrombin cleavage; laminin β1 chain, mouse, residues 1561-1786 of the native chain; as m6; laminin γ1 chain, mouse, residues 1362-1607 of the native chain; as m9; heterodimer by AUC; in the αβγ tests all three chains were mixed, the βγ complex was not isolated beforehand; source: mixture of the purified E. coli fragments; not …
T4 sequence 1: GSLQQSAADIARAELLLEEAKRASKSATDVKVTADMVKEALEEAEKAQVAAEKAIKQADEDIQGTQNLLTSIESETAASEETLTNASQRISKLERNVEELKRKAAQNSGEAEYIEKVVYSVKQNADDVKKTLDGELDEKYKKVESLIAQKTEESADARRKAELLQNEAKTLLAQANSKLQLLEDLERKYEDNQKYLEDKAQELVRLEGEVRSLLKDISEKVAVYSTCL
T4 sequence 2: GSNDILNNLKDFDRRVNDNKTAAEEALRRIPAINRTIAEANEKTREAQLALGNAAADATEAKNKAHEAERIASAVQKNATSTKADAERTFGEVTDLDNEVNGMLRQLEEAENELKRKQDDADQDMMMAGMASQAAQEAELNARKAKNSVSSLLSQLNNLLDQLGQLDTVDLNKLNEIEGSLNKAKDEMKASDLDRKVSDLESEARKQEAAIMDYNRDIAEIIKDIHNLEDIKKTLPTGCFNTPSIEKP
Nature of the assay: native gel or EMSA; mixtures of one α, one β and one γ chain fragment; 10% non-denaturing PAGE (acid gels for basic complexes); mixtures reduced, heated to 70 °C for 5 min and cooled; run overnight at 50 V, room temperature, no cooling; Coomassie; bands confirmed by in-gel trypsin digestion and mass spectrometry.

For assay [5], the target named is T5, β2γ1 complex of the recombinant mouse laminin coiled-coil fragments (mouse, UniProt Q61292 1575-1799; P02468 1362-1607).
T5 construct: two residues (GlySer) left from the protease recognition site after thrombin cleavage; laminin β2 chain, mouse, residues 1575-1799 of the native chain; as m7; laminin γ1 chain, mouse, residues 1362-1607 of the native chain; as m9; in the αβγ tests all three chains were mixed, the βγ complex was not isolated beforehand; source: mixture of the purified E. coli fragments; not shown: 6xHis, …
T5 sequence 1: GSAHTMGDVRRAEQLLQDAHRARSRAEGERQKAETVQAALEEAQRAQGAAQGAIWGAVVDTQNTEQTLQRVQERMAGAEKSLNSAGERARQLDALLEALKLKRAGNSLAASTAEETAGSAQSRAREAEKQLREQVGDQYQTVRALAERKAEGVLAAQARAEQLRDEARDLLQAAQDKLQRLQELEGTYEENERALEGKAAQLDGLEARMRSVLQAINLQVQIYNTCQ
T5 sequence 2: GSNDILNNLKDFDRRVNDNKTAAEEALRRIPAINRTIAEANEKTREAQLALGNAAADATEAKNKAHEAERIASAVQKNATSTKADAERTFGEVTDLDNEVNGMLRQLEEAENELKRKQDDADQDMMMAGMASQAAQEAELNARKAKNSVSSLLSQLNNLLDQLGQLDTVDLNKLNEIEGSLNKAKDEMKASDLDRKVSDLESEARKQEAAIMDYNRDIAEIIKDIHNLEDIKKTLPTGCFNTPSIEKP
Described as above.

The target in assay [6] is T6, β2γ2 complex of the recombinant mouse laminin coiled-coil fragments (mouse, UniProt Q61292 1575-1799; Q61092 949-1191).
T6 construct: two residues (GlySer) left from the protease recognition site after thrombin cleavage; laminin β2 chain, mouse, residues 1575-1799 of the native chain; as m7; laminin γ2 chain, mouse, residues 949-1191 of the native chain; as m10; in the αβγ tests all three chains were mixed, the βγ complex was not isolated beforehand; also called β2γ2 dimer; source: mixture of the purified E. coli fragments; not …
T6 sequence 1: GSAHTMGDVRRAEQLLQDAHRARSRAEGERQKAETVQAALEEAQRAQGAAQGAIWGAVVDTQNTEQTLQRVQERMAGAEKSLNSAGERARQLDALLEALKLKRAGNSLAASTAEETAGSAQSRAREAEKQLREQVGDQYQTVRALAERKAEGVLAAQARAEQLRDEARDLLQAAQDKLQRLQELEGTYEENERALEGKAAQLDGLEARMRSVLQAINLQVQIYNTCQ
T6 sequence 2: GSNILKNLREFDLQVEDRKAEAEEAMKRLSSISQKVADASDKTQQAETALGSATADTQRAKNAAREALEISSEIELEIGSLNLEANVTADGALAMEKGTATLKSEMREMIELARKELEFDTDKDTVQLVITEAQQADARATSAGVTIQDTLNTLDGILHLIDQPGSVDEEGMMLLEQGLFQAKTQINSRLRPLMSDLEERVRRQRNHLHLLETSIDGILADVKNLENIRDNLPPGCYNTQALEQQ
Described as above.

The target of assay [7] is T7, β2γ3 complex of the recombinant mouse laminin coiled-coil fragments (mouse, UniProt Q61292 1575-1799; Q9R0B6 1344-1581).
T7 construct: two residues (GlySer) left from the protease recognition site after thrombin cleavage; laminin β2 chain, mouse, residues 1575-1799 of the native chain; as m7; laminin γ3 chain, mouse, residues 1344-1581 of the native chain; as m11; in the αβγ tests all three chains were mixed, the βγ complex was not isolated beforehand; source: mixture of the purified E. coli fragments; not shown: 6xHis, …
T7 sequence 1: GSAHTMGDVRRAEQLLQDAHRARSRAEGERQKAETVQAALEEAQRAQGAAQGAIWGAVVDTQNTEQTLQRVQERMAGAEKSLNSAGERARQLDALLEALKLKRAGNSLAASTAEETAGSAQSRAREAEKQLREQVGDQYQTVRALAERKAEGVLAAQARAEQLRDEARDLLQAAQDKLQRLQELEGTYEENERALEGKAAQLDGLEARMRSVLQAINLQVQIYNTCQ
T7 sequence 2: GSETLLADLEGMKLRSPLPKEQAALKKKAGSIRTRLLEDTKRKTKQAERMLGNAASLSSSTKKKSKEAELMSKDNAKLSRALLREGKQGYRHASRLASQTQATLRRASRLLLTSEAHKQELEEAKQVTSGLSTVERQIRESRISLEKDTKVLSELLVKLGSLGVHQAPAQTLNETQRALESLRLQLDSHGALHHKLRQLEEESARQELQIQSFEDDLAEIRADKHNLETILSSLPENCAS
Described as above.

B1: recombinant mouse laminin β2 chain C-terminal coiled-coil fragment (1575–1799) (domain or fragment)
chain: GSAHTMGDVRRAEQLLQDAHRARSRAEGERQKAETVQAALEEAQRAQGAAQGAIWGAVVDTQNTEQTLQRVQERMAGAEKSLNSAGERARQLDALLEALKLKRAGNSLAASTAEETAGSAQSRAREAEKQLREQVGDQYQTVRALAERKAEGVLAAQARAEQLRDEARDLLQAAQDKLQRLQELEGTYEENERALEGKAAQLDGLEARMRSVLQAINLQVQIYNTCQ
notes: two residues (GlySer) left from the protease recognition site after thrombin cleavage; laminin β2 chain, mouse, C-terminal coiled-coil fragment, residues 1575-1799 of the native chain (225 residues); source: E. coli JM109(DE3), purified (Ni2+-Sepharose, denaturing, 8 M urea), 6xHis tag removed by thrombin; not shown: 6xHis, N-terminal, cleaved
For B1, the binding result in assay [1], in assay [2] and in assay [3] was “binds” throughout.

B2: recombinant mouse laminin β1 chain C-terminal coiled-coil fragment (1561–1786) (domain or fragment)
chain: GSLQQSAADIARAELLLEEAKRASKSATDVKVTADMVKEALEEAEKAQVAAEKAIKQADEDIQGTQNLLTSIESETAASEETLTNASQRISKLERNVEELKRKAAQNSGEAEYIEKVVYSVKQNADDVKKTLDGELDEKYKKVESLIAQKTEESADARRKAELLQNEAKTLLAQANSKLQLLEDLERKYEDNQKYLEDKAQELVRLEGEVRSLLKDISEKVAVYSTCL
notes: two residues (GlySer) left from the protease recognition site after thrombin cleavage; laminin β1 chain, mouse, C-terminal coiled-coil fragment, residues 1561-1786 of the native chain (226 residues); source: E. coli JM109(DE3), purified (Ni2+-Sepharose, denaturing, 8 M urea), 6xHis tag removed by thrombin; not shown: 6xHis, N-terminal, cleaved
With B2, the binding result in assay [1], in assay [2] and in assay [3] was “binds” each time.

B3: recombinant mouse laminin β3 chain C-terminal coiled-coil fragment (945–1168) (domain or fragment)
chain: GSLSQTKQDIARARRLQAEAEQARSRAHAVEGQVDDVVGNLRQGTVALQEAQDTMQGTGRSLRLIQERVGEVQQVLVPAERLVKGMKEQMSGFWARMKELRRQAQEEQAQAMQARQLAEGASQQAMNAQEGFKRLKQKYTELKDRLGQSPVLGEQGNRILSIKMEAEELFGETMEMMDKMKDMESELLRGSQAIMLRSADLSGLEKRVEQIRSYINGRVLYYATCK
notes: two residues (GlySer) left from the protease recognition site after thrombin cleavage; laminin β3 chain, mouse, C-terminal coiled-coil fragment, residues 945-1168 of the native chain (224 residues); source: E. coli JM109(DE3), purified (Ni2+-Sepharose, denaturing, 8 M urea), 6xHis tag removed by thrombin; not shown: 6xHis, N-terminal, cleaved
Consider B3, for which, in assay [1], the binding result is given as “binds”.

B4: recombinant mouse laminin α4 chain C-terminal coiled-coil fragment (616–842) (domain or fragment)
chain: GSASNVYENIANYVSEANETAELALNITDRIYDAVSGIDTQIIYHKDESDNLLNQARELQAKADSSNDEAVADTSRRVGGALWRKGALRDRLNDAVKQLQAAERGDAHQRLGQSKLFIEEANKTTAAVQQVTTPMANNLSNWSQNLQTFDSSAYNTAVDSARDAVRNLTEVVPQLLDQLRTVEQKRPASNISASIQRIRELIAQTRSVASKIQVSMMFDGQSAVEVHPK
notes: two residues (GlySer) left from the protease recognition site after thrombin cleavage; laminin α4 chain, mouse, C-terminal coiled-coil fragment, residues 616-842 of the native chain (227 residues); source: E. coli JM109(DE3), purified (Ni2+-Sepharose, denaturing, 8 M urea), 6xHis tag removed by thrombin; not shown: 6xHis, N-terminal, cleaved; pPEP-T leader (short C-terminal fragment of the …)
As for B4, the binding result in assay [4], in assay [5], in assay [6] and in assay [7] was “binds” in each case.
